Where two headings read alike, the source gives them in different places.
What was measured:
[1] = mouse; expected from published studies and own work; cited from earlier work
[2] = Expected pharmacokinetics of soluble and/or released interferon α in the mouse; format: in vivo; details: for a 20 g mouse
Method: Animal Study. […] Mice used for this study were Balb/c transgenic for the human Interferon α2b gene (Braun et al. 1997, Palleroni et al. 1997). Three mice were used for each formulation. As a, control, one set of mice was injected with 50 μg of soluble human IFN-α001. […] Thus, for a 20 g mouse, the volume of distribution should be ˜8 ml. At 24 hours after administration, given a half-life of 1 hr, we would predict that the serum concentration remaining from a 50 μg dose would be ˜1 pg/ml. In practice, all of the sera of this group of mice were below the detection limit of the ELISA of 40 pg/ml. To test our formulation strategy, we produced 5 different interferon formulations. Human IFN-α2b, human IFN-α001, human IFN-α012, and murine IFN-α formulations were allowed to mature for 18 hr. A fifth formulation contained human IFN-α001 and matured for 3 hours prior to centrifugation. The human IFN-α formulations were produced at 0.4 mg/ml protein with 25 mM NaOAc pH 5.4, 6 mM Tris pH 8.0, 50 mM NaCl, 1.25% glycerol, with particle formation intitiated by addition of N-propanol to 16%. […] Serum was collected at 24 hours post injection, mice in all groups recieving a human interferon had immunoreactive interferon in their serum as determined by ELISA (PBL Multispecies ELISA # 41105). […] No interferon was detected at the 96 hours or 168 hours time points.

## interferon α
[1]
  volume of distribution: about 0.4 ml/g
[2]
  volume of distribution: ~8 mL
